Marks after values point to notes of the source that are not given here.
Columns and labels:
[1] = molecular target: T1, PLIP (Mus musculus, UniProt Q66GT5); experiment: Phosphatase activity of various PTPs (malachite green / radiolabeled protein substrates); assay type: biochemical, murine; details: for Phosphatase activity, PLIP: mole of phosphate released/min/mol of enzyme, pH 5.5, triplicate, this study
T1 construct: ligating a PCR product encoding full-length PLIP; made in house; host or cells: Escherichia coli BL21 (DE3) CodonPlus RIL
T1 sequence (Q66GT5 32-193): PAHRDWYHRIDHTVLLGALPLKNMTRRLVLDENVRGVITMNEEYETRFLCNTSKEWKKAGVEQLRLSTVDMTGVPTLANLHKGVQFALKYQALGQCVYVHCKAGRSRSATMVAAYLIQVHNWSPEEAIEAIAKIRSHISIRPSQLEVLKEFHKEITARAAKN
Protocol: Recombinant murine PLIP was expressed as a fusion protein with N-terminal GST and 6-His tags in Escherichia coli BL21 (DE3) CodonPlus RIL cells (Stratagene). The expression construct was assembled by ligating a PCR product encoding full-length PLIP into the 5′-EcoR1 and 3′-Xho1 sites of a modified pET41 vector (pSJ6), kindly provided by Zhaohui Xu (University of Michigan). […] Cultures were then chilled on ice for 20 min, supplied with fresh antibiotics, induced with IPTG to a final concentration of 0.4 mM, and allowed to grow overnight @ 25° C., as previously described (Taylor and Dixon, 2003). All subsequent steps were performed @ 4° C. The cultures were pelleted by spinning @ 6000 rpm for 10 min in a Sorvall GSA rotor, resuspended in 30 ml of buffer (20 mM Imidazole, 50 mM Tris pH 7.4, 300 mM NaCl) with Complete protease inhibitors (Roche), and lysed via French Press. Insoluble material was removed by centrifugation @ 50,000 rpm for 30 min. The fusion protein was purified from the soluble supernatant first over Ni^2+ agarose beads, and then by successive separation on Superdex 75 and 200 gel filtration columns (Amersham). The resulting protein was concentrated, flash frozen in liquid nitrogen, and stored @−80° C. in 25% glycerol, 2 mM EDTA, and 2 mM DTT until use.
Di-C8 phosphoinosites (Echelon) and Dioleoyl-phosphatidylserine (Sigma) were dried together in a Speed Vac and resuspended via sonication in 18 μl assay buffer (100 mM sodium acetate, 50 mM bis-Tris, 50 mM Tris (pH 5.5), 10 mM DTT) to final concentrations of 50 μM and 500 μM, respectively. After prewarming at 37° C. for 5 min, reactions were initiated by the addition of 20 to 2000 ng of GST-PLIP diluted in assay buffer containing 1.0 mg/ml gelatin. Reactions were quenched after 5-30 min by the addition of 20 μl 0.1 M N-ethylmaleimide, and spun at 18,000×g for 10 min to sediment the lipid aggregates. […] Samples were allowed to sit for 40 minutes for color development before measuring absorbance at 620 nm. Inorganic phosphate release was quantitated by comparison to a standard curve of KH2PO4 in dH2O. […]

[2] = molecular target: T2, TC-PTP (Homo sapiens, UniProt P17706); experiment: as above; assay type: biochemical; details: mole of phosphate released/min/mol of enzyme; triplicate; this study
T2 sequence (P17706 1-415): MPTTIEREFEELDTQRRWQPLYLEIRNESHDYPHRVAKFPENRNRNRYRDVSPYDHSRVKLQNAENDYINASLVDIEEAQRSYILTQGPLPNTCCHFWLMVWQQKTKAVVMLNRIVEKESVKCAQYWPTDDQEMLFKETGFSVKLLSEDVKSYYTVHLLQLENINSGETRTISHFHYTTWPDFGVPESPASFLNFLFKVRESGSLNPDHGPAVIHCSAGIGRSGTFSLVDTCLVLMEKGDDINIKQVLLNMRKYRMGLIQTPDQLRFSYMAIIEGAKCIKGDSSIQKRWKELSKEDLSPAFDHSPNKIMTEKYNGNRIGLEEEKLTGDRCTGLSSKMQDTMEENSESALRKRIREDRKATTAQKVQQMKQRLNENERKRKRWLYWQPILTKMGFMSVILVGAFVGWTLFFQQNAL
Protocol: (§1) Di-C8 phosphoinosites (Echelon) and Dioleoyl-phosphatidylserine (Sigma) were dried together in a Speed Vac and resuspended via sonication in 18 μl assay buffer (100 mM sodium acetate, 50 mM bis-Tris, 50 mM Tris (pH 5.5), 10 mM DTT) to final concentrations of 50 μM and 500 μM, respectively. After prewarming at 37° C. for 5 min, reactions were initiated by the addition of 20 to 2000 ng of GST-PLIP diluted in assay buffer containing 1.0 mg/ml gelatin. Reactions were quenched after 5-30 min by the addition of 20 μl 0.1 M N-ethylmaleimide, and spun at 18,000×g for 10 min to sediment the lipid aggregates. Twenty-five microliters of the supernatant was added to 50 μl of malachite green reagent and vortexed. Samples were allowed to sit for 40 minutes for color development before measuring absorbance at 620 nm. Inorganic phosphate release was quantitated by comparison to a standard curve of KH2PO4 in dH2O.
(§2) Assays using radiolabeled protein substrates or pNPP were carried in assay buffer containing 50 mM sodium acetate, 25 mM bis-Tris, 25 mM Tris, and 2 mM DTT at pH 5.5 (GST-PLIP), 6.0 (VHR), or 7.0 (TC-PTP), at 30° C. Radiolabeled proteins and pNPP were prepared and assayed as previously reported (Taylor et al., 1997).
(§3) Due to the only recent emergence of PI(5)P as a known signaling molecule, few PTP's have been tested for activity against this substrate. To ensure that activity against PI(5)P is not a common feature of PTP's, membrane-bound di-C8 PI(5)P was assayed using a known tyrosine-specific PTP (TC-PTP) and a known dual-specific PTP (VHR) (Ishibashi et al., 1992; Zhao et al., 1992; Ruzzene et al., 1993; Zhou et al., 1994; Denu et al., 1995).

[3] = molecular target: VHR (Homo sapiens, UniProt P51452); experiment: as above; assay type: biochemical; details: mole of phosphate released/min/mol of enzyme; triplicate; this study
VHR, sequence (P51452 whole entry, species assumed): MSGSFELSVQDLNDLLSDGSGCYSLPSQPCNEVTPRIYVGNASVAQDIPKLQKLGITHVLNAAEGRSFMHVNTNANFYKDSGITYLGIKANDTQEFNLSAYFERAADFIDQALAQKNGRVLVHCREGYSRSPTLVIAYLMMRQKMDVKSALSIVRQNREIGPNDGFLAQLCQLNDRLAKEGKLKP
Protocol: as §1, §2, §3

[4] = molecular target: PTEN (Homo sapiens, UniProt P60484); details: protein substrates; Ref. 43; cited from earlier work
PTEN, sequence (P60484 whole entry, species assumed): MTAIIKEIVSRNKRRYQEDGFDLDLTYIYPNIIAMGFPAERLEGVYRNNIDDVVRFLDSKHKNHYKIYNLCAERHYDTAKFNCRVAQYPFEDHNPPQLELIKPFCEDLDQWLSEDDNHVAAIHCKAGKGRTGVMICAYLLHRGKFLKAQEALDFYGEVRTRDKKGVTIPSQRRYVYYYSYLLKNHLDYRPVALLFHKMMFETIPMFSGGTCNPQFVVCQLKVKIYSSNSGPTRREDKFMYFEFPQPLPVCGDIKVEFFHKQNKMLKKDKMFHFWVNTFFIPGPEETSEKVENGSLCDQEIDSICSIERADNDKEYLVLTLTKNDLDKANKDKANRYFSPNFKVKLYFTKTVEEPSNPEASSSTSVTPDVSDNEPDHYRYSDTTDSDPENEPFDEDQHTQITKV

[5] = molecular target: T3, MTM1 (Homo sapiens, UniProt Q13496); details: Ref. 32; cited from earlier work
T3 sequence (Q13496 1-603): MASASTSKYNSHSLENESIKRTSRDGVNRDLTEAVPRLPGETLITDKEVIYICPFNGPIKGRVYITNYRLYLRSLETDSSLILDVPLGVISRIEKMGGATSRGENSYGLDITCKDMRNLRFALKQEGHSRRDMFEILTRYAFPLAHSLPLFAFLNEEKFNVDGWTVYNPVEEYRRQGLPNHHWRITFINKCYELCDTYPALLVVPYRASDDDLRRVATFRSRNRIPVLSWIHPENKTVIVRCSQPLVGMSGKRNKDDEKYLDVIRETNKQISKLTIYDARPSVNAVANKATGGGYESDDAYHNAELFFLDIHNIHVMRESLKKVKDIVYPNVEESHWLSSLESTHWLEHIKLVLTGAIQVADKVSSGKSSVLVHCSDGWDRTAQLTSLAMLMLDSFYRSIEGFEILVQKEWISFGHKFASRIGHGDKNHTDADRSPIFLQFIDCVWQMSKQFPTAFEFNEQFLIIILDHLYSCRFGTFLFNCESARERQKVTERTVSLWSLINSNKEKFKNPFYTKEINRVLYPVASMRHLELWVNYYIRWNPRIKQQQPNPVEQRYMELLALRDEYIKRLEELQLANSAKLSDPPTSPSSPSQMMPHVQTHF

B1: myelin basic protein: radiolabeled myelin basic protein (protein, UniProt P02686 1-304, looked up)
Myelin basic protein: MGNHAGKRELNAEKASTNSETNRGESEKKRNLGELSRTTSEDNEVFGEADANQNNGTSSQDTAVTDSKRTADPKNAWQDAHPADPGSRPHLIRLFSRDAPGREDNTFKDRPSESDELQTIQEDSAATSESLDVMASQKRPSQRHGSKYLATASTMDHARHGFLPRHRDTGILDSIGRFFGGDRGAPKRGSGKDSHHPARTAHYGSLPQKSHGRTQDENPVVHFFKNIVTPRTPPPSQGKGRGLSLSRFSWGAEGQRPGFGYGGRASDYKSAHKGFKGVDAQGTLSKIFKLGGRDSRSGSPMARR
modifications: radiolabeled
[1]; radiolabeled protein substrates
  PLIP activity, fold lower than against PI(5)P: approximately 1000 fold

B2: MyBP Ser(P)/Tyr(P): radiolabeled myelin basic protein substrate (protein, UniProt P02686 1-304, looked up)
Myelin basic protein: B1 Myelin basic protein
modifications: radiolabeled, Ser/Tyr-phosphorylated
notes: radiolabeled myelin basic protein substrate
[2]
  Phosphatase activity, TC-PTP: ~0.0^b mol/(min mol)
[3]
  Phosphatase activity, VHR: ~0.0^b mol/(min mol)
[1]
  Phosphatase activity, PLIP: ~0.0^b mol/(min mol)
[4]
  Phosphatase activity, PTEN: ~0.0^c mol/(min mol)
[5]
  Phosphatase activity, MTM1: ~0.0^d mol/(min mol)

B3: MyBP Tyr(P): radiolabeled myelin basic protein substrate, tyrosine phosphorylated (protein, UniProt P02686 1-304, looked up)
Myelin basic protein: B1 Myelin basic protein
modifications: radiolabeled, tyrosine-phosphorylated
[2]
  Phosphatase activity, TC-PTP: 195^b mol/(min mol)
[3]
  Phosphatase activity, VHR: 0.5^b mol/(min mol)
[1]
  Phosphatase activity, PLIP: 0.1^b mol/(min mol)
[4]
  Phosphatase activity, PTEN: ~0.0^c mol/(min mol)
[5]
  Phosphatase activity, MTM1: ~0.0^d mol/(min mol)

Source: US7749976B2, “Isolated PTPMT1 protein which mediates insulin production and uses thereof” (The Regents of the University of California, priority 2005, dated 2010)
